Data reported in doi:10.1101/2024.02.17.580827 (bioRxiv, 2024).
Positions count from the first letter of the chain named. Numbers in names are those of the source. Each block holds one binder with its values, some of them ahead of it.

Target: T1, FolK (purified protein) (E. coli, UniProt P26281 1-159)
T1 sequence: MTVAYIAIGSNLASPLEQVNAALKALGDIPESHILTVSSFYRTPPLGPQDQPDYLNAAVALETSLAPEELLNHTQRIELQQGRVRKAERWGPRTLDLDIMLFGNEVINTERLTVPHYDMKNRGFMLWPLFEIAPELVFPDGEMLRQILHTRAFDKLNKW
Assay: Raman spectroscopy

B1: WT DHFR (purified protein) (enzyme)
chain: MISLIAALAVDRVIGMENAMPWNLPADLAWFKRNTLNKPVIMGRHTWESIGRPLPGRKNIILSSQPGTDDRVTWVKSVDEAIAACGDVPEIMVIGGGRVYEQFLPKAQKLYLTHIDAEVEGDTHFPDYEPDDWESVFSEFHDADAQNSHSYCFEILERR
- Kd: 22 µM

B4: D132H DHFR (purified protein) (enzyme)
chain: B1 chain with D132H
- Kd: 8.1 µM

Continued, values first:

- Kd: 10 µM
B2: D144N DHFR (purified protein) (enzyme)
chain: B1 chain with D144N

- Kd: 5.1 µM
B3: N23V DHFR (purified protein) (enzyme)
chain: B1 chain with N23V
